The Human Domainome abundance scans (Beltran et al. 2025)
± gives the uncertainty stated by the source.

B1: Neutrophil cytosol factor 2, residues 456 to 514; numbered along this chain, P19878 (parent)
chain: LKKGSQVEALFSYEATQPEDLEFQEGDIILVLSKVNEEWLEGECKGKVGIFPKVFVEDC
B2: COUP transcription factor 1, residues 83 to 159; numbered along this chain, P10589 (parent)
chain: HIECVVCGDKSSGKHYGQFTCEGCKSFFKRSVRRNLTYTCRANRNCPIDQHHRNQCQYCRLKKCLKVGMRREAVQRG

Variants of: B1
Experiment: abundance fitness (aPCA) (normalised: wild type 0, dead -1); higher = more abundant; growth selection in yeast, the domain comes from the species named
Conditions: Homo sapiens

Variant	abundance fitness
E57H	-0.084 ± 0.13
E57V	-0.198 ± 0.12
E57T	0.487 ± 0.087
E57D	-0.254 ± 0.17
E57W	-0.033 ± 0.28
E57I	-0.697 ± 0.22
Q17N	-0.093 ± 0.11
Q17K	0.796 ± 0.18
Q17Y	-0.09 ± 0.12
Q17V	-0.643 ± 0.13
Q17P	-1.03 ± 0.34
V7D	-0.907 ± 0.49
V7L	-0.633 ± 0.24
C44M	0.102 ± 0.21
C44T	-0.467 ± 0.17
C44K	-0.574 ± 0.4
C44I	-0.705 ± 0.14
C44W	-0.182 ± 0.17
Q6M	0.023 ± 0.15
Q6W	0.367 ± 0.16
Q6L	0.437 ± 0.095
F55E	-0.821 ± 0.39
F55K	-0.584 ± 0.37

Variant	abundance fitness
F55H	-0.229 ± 0.19
F55W	-0.529 ± 0.35
F55N	-0.522 ± 0.14
F55P	-0.145 ± 0.25
F55D	-0.409 ± 0.18
S12P	-0.257 ± 0.2
S12T	-0.119 ± 0.11
S12V	-0.816 ± 0.21
E14S	-0.123 ± 0.083
E14M	-0.483 ± 0.33
E14W	-0.168 ± 0.16
E14Y	-0.215 ± 0.12
E14V	0.027 ± 0.089
E14P	0.023 ± 0.19
E14N	0.074 ± 0.11
E14D	-0.073 ± 0.12
K47G	-0.511 ± 0.13
K47P	-0.806 ± 0.27
K47H	-0.673 ± 0.2
K47R	-0.118 ± 0.11
K47L	-0.361 ± 0.094
K47F	-0.241 ± 0.1
K47V	-0.331 ± 0.1

Variant	abundance fitness
K47S	-0.22 ± 0.095
F23C	-0.218 ± 0.11
F23Y	-0.517 ± 0.14
F23D	-0.527 ± 0.14
F23E	-0.023 ± 0.29
F23N	-0.381 ± 0.16
F23A	-0.333 ± 0.2
T16S	-0.153 ± 0.097
T16D	-0.428 ± 0.12
T16N	-0.304 ± 0.14
T16V	-0.36 ± 0.098
T16K	0.397 ± 0.46
T16L	-0.076 ± 0.11
T16R	-0.457 ± 0.14
T16H	-0.617 ± 0.18
G46P	-0.747 ± 0.47
G46R	-0.392 ± 0.23
G46K	-0.732 ± 0.42
G46N	0.219 ± 0.11
G46L	-0.226 ± 0.12
K53I	-0.865 ± 0.21
K53V	-0.536 ± 0.15
V56I	-0.81 ± 0.22

Variant	abundance fitness
V56G	-0.713 ± 0.13
V56L	-0.589 ± 0.15
V56E	-0.415 ± 0.36
V56N	-0.439 ± 0.15
V56F	-0.255 ± 0.11
L30E	0.042 ± 0.31
L30V	-0.07 ± 0.095
L30N	0.756 ± 0.083
L30R	0.552 ± 0.07
L30F	-0.147 ± 0.1
I28G	-0.245 ± 0.095
I28K	0.638 ± 0.15
I28F	-0.443 ± 0.14
I28T	0.163 ± 0.11
I28H	0.116 ± 0.099
G42Y	-0.466 ± 0.16
G42K	-0.768 ± 0.35
G42Q	-0.637 ± 0.28
G42C	-0.782 ± 0.15
G42T	-0.876 ± 0.24
G42P	-0.375 ± 0.18
G42N	-0.484 ± 0.15
G42D	-0.803 ± 0.17

Variant	abundance fitness
G42W	-0.322 ± 0.17
A9I	-0.533 ± 0.33
A9F	-0.2 ± 0.27
A9M	-0.532 ± 0.34
A9E	-0.361 ± 0.24
A9P	0.082 ± 0.41
V31C	-0.418 ± 0.14
V31F	-0.354 ± 0.13
I29N	-0.119 ± 0.11
I29D	-0.41 ± 0.15
I29E	-0.392 ± 0.22
I29W	0.005 ± 0.16
I29G	-0.365 ± 0.1
S5I	-0.299 ± 0.3
S5D	0.797 ± 0.15
S5V	-0.056 ± 0.13
E19M	-0.463 ± 0.22
E19R	-0.295 ± 0.099
E19S	-0.229 ± 0.08
E19L	0.006 ± 0.09
E19A	-0.172 ± 0.11

Variants of: B2
Experiment: as above
Conditions: Homo sapiens

Variant	abundance fitness
S31Y	-0.169 ± 0.2
S31L	-0.571 ± 0.11
S26V	0.088 ± 0.09
S11C	0.182 ± 0.071
Y16N	-0.539 ± 0.2
G8D	0.177 ± 0.12
M69R	-0.737 ± 0.058
Q50C	-0.078 ± 0.071
C59M	-0.809 ± 0.13
C46H	-0.536 ± 0.22
R76F	0.097 ± 0.1
C64D	-0.893 ± 0.18
H52G	0.035 ± 0.043
C40W	-0.712 ± 0.1
E3D	0.006 ± 0.063
E3W	-0.319 ± 0.066
T39F	0.23 ± 0.28
R33K	-0.022 ± 0.079
R44I	0.038 ± 0.089
G77Y	-0.257 ± 0.14
R71W	-0.085 ± 0.045
L36V	0.007 ± 0.05
L36M	-0.085 ± 0.095
F28D	-0.991 ± 0.33
L61S	-0.691 ± 0.07
C56I	-0.627 ± 0.19
C56N	-0.373 ± 0.21

Variant	abundance fitness
D49H	-0.269 ± 0.075
K63A	-0.254 ± 0.045
R41C	0.038 ± 0.099
R41I	0.135 ± 0.13
R41W	0.145 ± 0.052
E72A	-0.237 ± 0.048
E72S	-0.252 ± 0.044
K14P	0.201 ± 0.27
Y38P	0.094 ± 0.085
V74P	-0.151 ± 0.076
K25V	0.025 ± 0.045
Q18N	-0.345 ± 0.25
Q18P	0.079 ± 0.073
F27S	-0.815 ± 0.17
G23R	-0.081 ± 0.079
I2M	-0.078 ± 0.1
I2V	-0.648 ± 0.14
H1G	0.277 ± 0.087
H1Q	0.121 ± 0.12
E22P	-0.038 ± 0.077
C21I	-0.999 ± 0.37
V32H	0.19 ± 0.14
Y58V	-0.787 ± 0.073
P47A	-0.008 ± 0.045
C4A	-1.04 ± 0.14
C4S	-0.515 ± 0.062
C24A	-0.841 ± 0.11
